Target: the molecule itself
Assay: cryo-EM structure; single-particle cryo-EM of purified cASIC1-SMA at ~1 mg/ml, pH adjusted to 7.0 with MES pH 6.0, TBS with 1 mM DTT; low pH desensitized state; C3 symmetry in the final refinement

B1: full-length chicken acid-sensing ion channel 1 (cASIC1) solubilized in styrene maleic acid copolymer (natural protein, Gallus gallus (chicken), UniProt Q1XA76 1-527, looked up)
chain: MMDLKVDEEEVDSGQPVSIQAFASSSTLHGISHIFSYERLSLKRVVWALCFMGSLALLALVCTNRIQYYFLYPHVTKLDEVAATRLTFPAVTFCNLNEFRFSRVTKNDLYHAGELLALLNNRYEIPDTQTADEKQLEILQDKANFRNFKPKPFNMLEFYDRAGHDIREMLLSCFFRGEQCSPEDFKVVFTRYGKCYTFNAGQDGKPRLITMKGGTGNGLEIMLDIQQDEYLPVWGETDETSFEAGIKVQIHSQDEPPLIDQLGFGVAPGFQTFVSCQEQRLIYLPPPWGDCKATTGDSEFYDTYSITACRIDCETRYLVENCNCRMVHMPGDAPYCTPEQYKECADPALDFLVEKDNEYCVCEMPCNVTRYGKELSMVKIPSKASAKYLAKKYNKSEQYIGENILVLDIFFEALNYETIEQKKAYEVAGLLGDIGGQMGLFIGASILTVLELFDYAYEVIKHRLCRRGKCRKNHKRNNTDKGVALSMDDVKRHNPCESLRGHPAGMTYAANILPHHPARGTFEDFTC
notes: the final models contain residues 17-462; Homotrimer in SMA copolymer with endogenous lipids; Expression is 'as previously described (Yoder et al., 2018a)'; also called cASIC1-SMA; SMA-cASIC1a
Question: How did the “stoichiometry N” value turn out when B1 was run?
Answer: Its value is 3.

From PMC7308080, “The His-Gly motif of acid-sensing ion channels resides in a reentrant ‘loop’ implicated in gating and ion selectivity” (eLife, 2020)
